According to article PMC13086950 (Nature Communications, 2026):

Columns and labels:
[1] = target: the molecule itself; assay: SEC-MALS; fraction A1 of GephFL, 100 μL at 1.3 mg/mL, Superose 6 Increase 10/300 GL, 20 mM HEPES pH 8.0, 150 mM NaCl, 1 mM EDTA, 5 mM β-mercaptoethanol
[2] = target: the molecule itself; assay: SEC-MALS; fraction A2’ of GephFL, 100 μL at 1.3 mg/mL, Superose 6 Increase 10/300 GL, 20 mM HEPES pH 8.0, 150 mM NaCl, 1 mM EDTA, 5 mM β-mercaptoethanol
[3] = target: the molecule itself; assay: SEC-MALS; fraction B1’ of GephFL, 100 μL at 1.2 mg/mL, Superose 6 Increase 10/300 GL, 20 mM HEPES pH 8.0, 150 mM NaCl, 1 mM EDTA, 5 mM β-mercaptoethanol

B1: Full-length gephyrin, splice variant P1 (natural protein)
chain: MAHHHHHHGGSSGGSSEFMATEGMILTNHDHQIRVGVLTVSDSCFRNLAEDRSGINLKDLVQDPSLLGGTISAYKIVPDEIEEIKETLIDWCDEKELNLILTTGGTGFAPRDVTPEATKEVIEREAPGMALAMLMGSLNVTPLGMLSRPVCGIRGKTLIINLPGSKKGSQECFQFILPALPHAIDLLRDAIVKVKEVHDELEDLPSPPPPLSPPPTTSPHKQTEDKGVQCEEEEEEKKDSGVASTEDSSSSHITAAALAAKIPDSIISRGVQVLPRDTASLSTTPSESPRAQATSRLSTASCPTPKVQSRCSSKENILRASHSAVDITKVARRHRMSPFPLTSMDKAFITVLEMTPVLGTEIINYRDGMGRVLAQDVYAKDNLPPFPASVKDGYAVRAADGPGDRFIIGESQAGEQPTQTVMPGQVMRVTTGAPIPCGADAVVQVEDTELIRESDDGTEELEVRILVQARPGQDIRPIGHDIKRGECVLAKGTHMGPSEIGLLATVGVTEVEVNKFPVVAVMSTGNELLNPEDDLLPGKIRDSNRSTLLATIQEHGYPTINLGIVGDNPDDLLNALNEGISRADVIITSGGVSMGEKDYLKQVLDIDLHAQIHFGRVFMKPGLPTTFATLDIDGVRKIIFALPGNPVSAVVTCNLFVVPALRKMQGILDPRPTIIKARLSCDVKLDPRPEYHRCILTWHHQEPLPWAQSTGNQMSSRLMSMRSANGLLMLPPKTEQYVELHKGEVVDVMVIGRL
Q: B1 was tested. Which “stoichiometry N” value [1] did it give?
A: ~6

Q: What about the “stoichiometry N” value [2] of the same protein?
A: ~4

Q: What about the “stoichiometry N” value [3] of the same protein?
A: 2
